For eight sequences, Kd results are on record in the Immune Epitope Database (IEDB).

Experiment [1] has as its target HLA-B*35:01. As to the kind of experiment: IEDB peptide-MHC binding, purified MHC/direct/fluorescence; filed as Kd, often an IC50 or EC50 that approximates it; ≥ and ≤ were set here for values at or beyond the usual limits of such assays. As to conditions: source organism: Yellow fever virus.
The target of experiment [2] is HLA-C*03:03. The description is as above.
For experiment [3], the target named is HLA-B*51:01. The experiment is described as above. As to conditions: source organism: Yellow fever virus.
Experiment [4] has as its target HLA-A*02:03. As to the kind of experiment: IEDB peptide-MHC binding, purified MHC/competitive/fluorescence; filed as Kd, often an IC50 or EC50 that approximates it; ≥ and ≤ were set here for values at or beyond the usual limits of such assays.
Experiment [5] deals with HLA-B*57:01. The description is as above.
Experiment [6] deals with HLA-B*15:17. The description is as above. As to conditions: source organism: Campylobacter jejuni subsp. jejuni NCTC 11168 = ATCC 700819.
In experiment [7] the target is HLA-B*39:01. The experiment is described as above.
Experiment [8] deals with HLA-B*27:03. Described as above.
In experiment [9] the target is HLA-A*02:19. The description is as above. As to conditions: source organism: Campylobacter jejuni subsp. jejuni NCTC 11168 = ATCC 700819.
The target of experiment [10] is HLA-A*26:01. The experiment is described as above.
Experiment [11] deals with HLA-A*02:12. The description is as above.
In experiment [12] the target is HLA-A*03:01. The description is as above.
Experiment [13] concerns the target HLA-A*02:01. Described as above.
The target in experiment [14] is HLA-A*02:11. The description is as above.
For experiment [15], the target named is HLA-B*51:01. The description is as above. As to conditions: source organism: Campylobacter jejuni subsp. jejuni NCTC 11168 = ATCC 700819.
Experiment [16] deals with HLA-B*18:01. The description is as above.
In experiment [17] the target is HLA-B*15:01. Described as above.
Experiment [18] has as its target HLA-B*46:01. Described as above.
Experiment [19] deals with HLA-A*29:02. Described as above. As to conditions: source organism: Campylobacter jejuni subsp. jejuni NCTC 11168 = ATCC 700819.
The target of experiment [20] is HLA-B*57:01. As to the kind of experiment: IEDB peptide-MHC binding, purified MHC/direct/fluorescence; filed as Kd, often an IC50 or EC50 that approximates it; ≥ and ≤ were set here for values at or beyond the usual limits of such assays. As to conditions: source organism: West Nile virus.
Experiment [21] has as its target HLA-A*01:01. The description is as above.
In experiment [22] the target is HLA-B*48:01. The experiment is described as above. As to conditions: source organism: West Nile virus.
Experiment [23] has as its target HLA-B*58:01. The description is as above.
Experiment [24] addresses HLA-B*40:01. Described as above.
Experiment [25] concerns the target HLA-A*31:01. The experiment is described as above.
Experiment [26] deals with HLA-A*03:01. Described as above.
Experiment [27] addresses HLA-B*08:02. The experiment is described as above. As to conditions: source organism: West Nile virus strain PTRoxo.
The target of experiment [28] is HLA-B*27:05. The experiment is described as above.
Experiment [29] deals with HLA-B*18:01. Described as above. As to conditions: source organism: West Nile virus.
The target in experiment [30] is HLA-A*11:01. Described as above.
The target in experiment [31] is HLA-B*44:02. The description is as above. As to conditions: source organism: West Nile virus.
For experiment [32], the target named is HLA-A*26:01. The experiment is described as above. As to conditions: source organism: Escherichia coli.
Experiment [33] concerns the target HLA-B*07:02. The description is as above. As to conditions: source organism: Escherichia coli.
Experiment [34] deals with HLA-A*02:01. The experiment is described as above. As to conditions: source organism: Escherichia coli.
For experiment [35], the target named is HLA-A*24:03. Described as above.
The target of experiment [36] is HLA-A*69:01. The experiment is described as above. As to conditions: source organism: Escherichia coli.
Experiment [37] has as its target HLA-B*15:01. The experiment is described as above. As to conditions: source organism: Escherichia coli.
Experiment [38] deals with HLA-B*08:01. The description is as above. As to conditions: source organism: Escherichia coli.
Experiment [39] deals with HLA-A*02:06. Nature of the experiment: IEDB peptide-MHC binding, purified MHC/competitive/fluorescence; filed as Kd, often an IC50 or EC50 that approximates it; ≥ and ≤ were set here for values at or beyond the usual limits of such assays. As to conditions: source organism: Escherichia coli.
Experiment [40] deals with HLA-C*06:02. As to the kind of experiment: IEDB peptide-MHC binding, purified MHC/direct/fluorescence; filed as Kd, often an IC50 or EC50 that approximates it; ≥ and ≤ were set here for values at or beyond the usual limits of such assays.
Experiment [41] addresses HLA-C*15:02. The experiment is described as above. As to conditions: source organism: Pan troglodytes.
Experiment [42] deals with HLA-C*14:02. The description is as above. As to conditions: source organism: Pan troglodytes.
Where [43] appears, read: source organism: Campylobacter jejuni subsp. jejuni NCTC 11168 = ATCC 700819.
Setting [44] is: source organism: Vaccinia virus WR.
The mark [45] stands for this setting: source organism: West Nile virus.
Setting [46] is: source organism: Escherichia coli.
[47] abbreviates: source organism: Pan troglodytes.

The Kd is the free concentration of one partner at which half of the binding sites on the other are occupied at equilibrium, for simple one-to-one binding. Consider AATIRVLAL, for which the Kd in [1] is at least 20 µM; in experiment [2] (source organism: Yellow fever virus) it was 0.009 µM; in [3] it was at least 20 µM.

As for FTFERSKIK, the Kd in [4] (setting [43]), in [5] (setting [43]), in experiment [6], in experiment [7] (setting [43]), in experiment [8] (setting [43]) and in experiment [9] was at least 20 µM in each case. Besides, the Kd in experiment [10] (setting [43]) was at least 20 µM; in [11] (setting [43]) it was at least 20 µM; in [12] (setting [43]), 0.2 µM; in experiment [13] (setting [43]), at least 20 µM; in experiment [14] (setting [43]), at least 20 µM; in experiment [15], at least 20 µM. In addition, the Kd in experiment [16] (setting [43]), in experiment [17] (setting [43]), in experiment [18] (setting [43]) and in experiment [19] was at least 20 µM in each case.

Regarding GLNDYLHSV, the Kd in experiment [2] (setting [44]) was at least 20 µM; in experiment [13] (setting [44]), 0.0016 µM.

On to ILRNPGYAL, for which the Kd in [20], in experiment [21] (setting [45]), in [22], in experiment [23] (setting [45]), in experiment [24] (setting [45]) and in experiment [25] (setting [45]) was at least 20 µM throughout. In addition, the Kd in experiment [2] (setting [45]) was 0.157 µM; in [26] (setting [45]) it was at least 20 µM; in [27] it was at least 20 µM; in experiment [28] (setting [45]), at least 20 µM; in experiment [29], at least 20 µM; in experiment [30] (setting [45]), at least 20 µM. The same sequence had a Kd in experiment [31] of at least 20 µM.

As for LMQWWSDYV, the Kd in experiment [32] is 0.343 µM; in experiment [21] (setting [46]) it was at least 20 µM; in experiment [23] (setting [46]), at least 20 µM; in experiment [24] (setting [46]) it was at least 20 µM; in experiment [25] (setting [46]), 0.562 µM; in experiment [26] (setting [46]), at least 20 µM. Further, the Kd in experiment [33] was at least 20 µM; in experiment [34], 0.00574 µM; in experiment [28] (setting [46]), at least 20 µM; in experiment [35] (setting [46]), at least 20 µM; in experiment [36], 0.00476 µM; in experiment [37] it was 0.234 µM. In addition, the Kd in experiment [30] (setting [46]) is at least 20 µM; in experiment [38] it was at least 20 µM; in experiment [4] (setting [46]) it was at most 0.0001 µM; in [39], 0.00285 µM; in experiment [11] (setting [46]), at most 0.0001 µM; in experiment [14] (setting [46]), at most 0.0001 µM.

With LYIEILRLL, the Kd in [40] (source organism: Mycobacterium tuberculosis C) came to 0.044 µM; in experiment [35] (source organism: Mycobacterium avium 104) it was 0.007 µM.

On to YIVGYYSAL, for which the Kd in [2] (source organism: Escherichia coli B171) is at most 0.001 µM; in [7] (setting [46]), 0.0871 µM; in [10] (setting [46]), 0.232 µM; in experiment [13] (setting [46]), 0.0017 µM.

Turning to YYFSYPLFV, the Kd in experiment [40] (setting [47]) is 0.006 µM; in experiment [41] it was 0.771 µM; in experiment [42], at most 0.001 µM; in experiment [5] (setting [47]), at least 20 µM; in experiment [8] (setting [47]) it was at least 20 µM; in experiment [10] (setting [47]) it was at least 20 µM. Further, the dissociation constant (Kd) in experiment [12] (setting [47]) is at least 20 µM; in experiment [13] (setting [47]), 0.13 µM; in [16] (setting [47]), at least 20 µM; in experiment [17] (setting [47]) it was at least 20 µM; in experiment [18] (setting [47]), at least 20 µM.
